From US20180371086A1 (Gilead, published 2018) come the findings set out here.

The EC50 is the concentration that produces a half-maximal response. A high value points to weaker potency.

Assay [1] addresses T1, HIV-1 Env gp120 of virus WITO, on infected cells (HIV-1). The assay is described as follows: cell-based or functional assay.
The target of assay [2] is HIV-1 Env gp120 of virus 1489, on infected cells (HIV-1). The assay is described as follows: cell-based or functional assay.
Assay [3] has as its target HIV-1 Env gp120 of virus 7015, on infected cells (HIV-1). The assay is described as follows: cell-based or functional assay.
Assay [4] concerns the target HIV-1 Env gp120 of virus 7552, on infected cells (HIV-1). The assay can be described thus: cell-based or functional assay.
For assay [5], the target named is HIV-1 Env gp120 of virus CH058, on infected cells (HIV-1). The assay can be described thus: cell-based or functional assay.
Assay [6] concerns the target HIV-1 Env gp120 of virus 92US727, on infected cells (HIV-1). The assay is described as follows: cell-based or functional assay.
In assay [7] the target is T1, HIV-1 Env gp120 of virus WITO, on …. The assay is described as follows: cell-based or functional assay. The source holds these as a separate data set.
The target in assay [8] is gp120 (HT593) expressed on human embryonic kidney (HEK) cells (HIV-1). The assay is described as follows: cell-based or functional assay.
The target in assay [9] is HIV-1 Env of the lab adapted HIV-1 BaL strain (HIV-1). The assay is described as follows: cell-based or functional assay.
Assay [10] has as its target HIV-1 Env of subtype B isolate 93HT593 (HIV-1). The assay is described as follows: cell-based or functional assay.
The target in assay [11] is HIV-1 Env of subtype B isolate 92US657 (HIV-1). The assay can be described thus: cell-based or functional assay.
The target in assay [12] is HIV-1 Env of subtype B isolate 92US712 (HIV-1). The assay is described as follows: cell-based or functional assay.
Assay [13] has as its target HIV-1 Env of subtype B isolate 92US727 (HIV-1). The assay is described as follows: cell-based or functional assay.
The target in assay [14] is T2, Human FcRn (human, UniProt P55899 24-297; P61769 21-119).
T2 construct: also called neonatal Fc receptor
The assay is described as follows: ELISA, FcRn coated on plate, pH 6.0. For orientation: ELISA stands for enzyme-linked immunosorbent assay.
Description: (§1) The binding of antibodies to FcRn of various antibody variants at different pHs was determined. A 96-well Maxisorp plate was coated with 100 ul of 5 μg/ml FcRn. The plate was incubated overnight at 4° C., and then blocked with 4% skim milk for 2 hr at room temperature after washing 3 times with 0.05% Tween 20 washing buffer. […] The plate was then washed 3 times and 100 μL of Fab-anti-human Fab-HRP or Goat anti-human IgG-HRP secondary antibody diluted in 4% skimmed milk was added. Plates were then incubated 50 min at room temperature, washed three times, and 100 μL fresh TMB substrate was added. Plates were developed for 3 minutes on bench with gentle shaking. Plate was quenched with 100 μL 1M HCl, shaken briefly, read at A450 on a spectramax m5 plate reader.

In assay [15] the target is T2, Human FcRn. The assay can be described thus: ELISA, FcRn coated on plate, pH 7.0.
Description: as §1
Assay [16] has as its target T2, Human FcRn. The assay can be described thus: ELISA, FcRn coated on plate; ratio of EC50 at pH 7.0 to pH 6.0.
Description: as §1
The target in assay [17] is T2, Human FcRn. The assay can be described thus: ELISA, FcRn coated on plate; pH 7.0/6.0 ratio against that of PGT121.
Description: as §1

T2 sequence (P55899 24-297 limits assumed, chain 1 of 2): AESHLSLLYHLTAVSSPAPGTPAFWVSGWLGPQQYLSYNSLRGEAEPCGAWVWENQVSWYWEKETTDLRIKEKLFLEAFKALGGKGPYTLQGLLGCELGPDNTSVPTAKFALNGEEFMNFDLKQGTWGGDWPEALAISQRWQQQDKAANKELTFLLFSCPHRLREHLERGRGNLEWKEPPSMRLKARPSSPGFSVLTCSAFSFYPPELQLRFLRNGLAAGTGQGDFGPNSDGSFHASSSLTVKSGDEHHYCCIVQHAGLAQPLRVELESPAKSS
T2 sequence (P61769 21-119 limits assumed, chain 2 of 2): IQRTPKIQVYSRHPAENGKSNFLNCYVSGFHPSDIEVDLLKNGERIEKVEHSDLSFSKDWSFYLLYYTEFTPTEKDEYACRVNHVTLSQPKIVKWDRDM

B1: Exemplary gp120×CD3 Duobody® (bispecific antibody, human IgG1, lambda)
heavy 1: QMQLQESGPGLVKPSETLSLTCSVSGASISDSYWSWIRRSPGKGLEWIGYVHKSGDTNYNPSLKSRVHLSLDTSKNQVSLSLTGVTAADSGKYYCARTLHGRRIYGIVAFNEWFTYFYMDVWGTGTQVTVSSASTKGPSVFPLAPSSKSTSGGTAALGCLVKDYFPEPVTVSWNSGALTSGVHTFPAVLQSSGLYSLSSVVTVPSSSLGTQTYICNVNHKPSNTKVDKRVEPKSCDKTHTCPPCPAPEFEGGPSVFLFPPKPKDTLMISRTPEVTCVVVAVSHEDPEVKFNWYVDGVEVHNAKTKPREEQYNSTYRVVSVLTVLHQDWLNGKEYKCKVSNKALPAPIEKTISKAKGQPREPQVYTLPPSREEMTKNQVSLTCLVKGFYPSDIAVEWESNGQPENNYKTTPPVLDSDGSFFLYSRLTVDKSRWQQGNVFSCSVMHEALHNHYTQKSLSLSPGK
light 1: not shown
heavy 2: not shown
light 2: not shown
In the case of B1, in [1], the “killing EC50; HIV-infected CEM-NKr-CCR5-LucR CD4 T cells; PBMC donor 4176; virus WITO” value was found to be 0.248 µg/mL and the “killing EC50; HIV-infected CEM-NKr-CCR5-LucR CD4 T cells; PBMC donor 4288; virus WITO” value worked out at 0.046 µg/mL. Besides, in assay [2], the “killing EC50; HIV-infected CEM-NKr-CCR5-LucR CD4 T cells; PBMC donor 4176; virus 1489” value was 0.028 µg/mL and the “killing EC50; HIV-infected CEM-NKr-CCR5-LucR CD4 T cells; PBMC donor 4288; virus 1489” value turned out to be 0.005 µg/mL. Also, in assay [3], the “killing EC50; HIV-infected CEM-NKr-CCR5-LucR CD4 T cells; PBMC donor 4176; virus 7015” value is 1.04 µg/mL and the “killing EC50; HIV-infected CEM-NKr-CCR5-LucR CD4 T cells; PBMC donor 4288; virus 7015” value was 0.446 µg/mL. In assay [4], the “killing EC50; HIV-infected CEM-NKr-CCR5-LucR CD4 T cells; PBMC donor 4176; virus 7552” value came to 0.038 µg/mL and the “killing EC50; HIV-infected CEM-NKr-CCR5-LucR CD4 T cells; PBMC donor 4288; virus 7552” value was 0.003 µg/mL. Moreover, in assay [5], the “Potency (IC50) of killing HIV-infected cells; PBMC-derived effector cells; donor 1003277; virus CHO58” value worked out at 0.002 µg/mL, the “Potency (IC50) of killing HIV-infected cells; PBMC-derived effector cells; donor 1004344; virus CHO58” value turned out to be 0.001 µg/mL, the “Potency (IC50) of killing HIV-infected cells; tonsil-derived effector cells; donor 1003277; virus CHO58” value was determined as 0.024 µg/mL and the “Potency (IC50) of killing HIV-infected cells; tonsil-derived effector cells; donor 1004344; virus CHO58” value turned out to be 0.031 µg/mL. Moreover, in assay [6], the “Potency (IC50) of killing HIV-infected cells; PBMC-derived effector cells; donor 1004344; virus 92US727” value is 0.012 µg/mL and the “Potency (IC50) of killing HIV-infected cells; tonsil-derived effector cells; donor 1004344; virus 92US727” value turned out to be 0.051 µg/mL. For the same molecule, in assay [7], the “killing EC50; HIV-infected CD4 T cells (WITO); effector cells Eff Memory CD4” value was 0.02 µg/mL, the “killing EC50; HIV-infected CD4 T cells (WITO); effector cells Memory CD4” value came to 0.02 µg/mL, the “killing EC50; HIV-infected CD4 T cells (WITO); effector cells Memory CD8” value was 0.02 µg/mL and the “killing EC50; HIV-infected CD4 T cells (WITO); effector cells Naïve CD4” value turned out to be 0.03 µg/mL. Also, in assay [7], the “killing EC50; HIV-infected CD4 T cells (WITO); effector cells γ Δ CD4” value stood at 0.09 µg/mL.

B2: Variant 2 (DS -> DF) (antibody, human IgG1, lambda, V domains shown)
VH: QMQLQESGPGLVKPSETLSLTCSVSGASISDSYWSWIRRSPGKGLEWIGYVHKSGDTNYNPSLKSRVHLSLDTSKNQVSLSLTGVTAADSGKYYCARTLHGRRIYGIVAFNEWFTYFYMDVWGTGTQVTVSS
VL: SDISVAPGETARISCGEKSLGSRAVQWYQHRAGQAPSLIIYNNQDRPSGIPERFSGSPDFRPGTTATLTITSVEAGDEADYYCHIWDSRVPTKWVFGGGTTLTVLG
In the case of B2, the “% ADCC Activity (ADCC reporter cell based assay; sample stressed at 25° C. for 4 weeks, relative to its untreated control)” value in assay [8] is 96%.

B3: Variant 3 (DS->DT) (antibody, human IgG1, lambda, V domains shown)
VH: QMQLQESGPGLVKPSETLSLTCSVSGASISDSYWSWIRRSPGKGLEWIGYVHKSGDTNYNPSLKSRVHLSLDTSKNQVSLSLTGVTAADSGKYYCARTLHGRRIYGIVAFNEWFTYFYMDVWGTGTQVTVSS
VL: SDISVAPGETARISCGEKSLGSRAVQWYQHRAGQAPSLIIYNNQDRPSGIPERFSGSPDTRPGTTATLTITSVEAGDEADYYCHIWDSRVPTKWVFGGGTTLTVLG
For the molecule B3, the “% ADCC Activity (ADCC reporter cell based assay; sample stressed at 25° C. for 4 weeks, relative to its untreated control)” value in assay [8] was found to be 104%.

B4: Variant 4 (DS->GS) (antibody, human IgG1, lambda, V domains shown)
VH: QMQLQESGPGLVKPSETLSLTCSVSGASISDSYWSWIRRSPGKGLEWIGYVHKSGDTNYNPSLKSRVHLSLDTSKNQVSLSLTGVTAADSGKYYCARTLHGRRIYGIVAFNEWFTYFYMDVWGTGTQVTVSS
VL: SDISVAPGETARISCGEKSLGSRAVQWYQHRAGQAPSLIIYNNQDRPSGIPERFSGSPGSRPGTTATLTITSVEAGDEADYYCHIWDSRVPTKWVFGGGTTLTVLG
As to B4, the “% ADCC Activity (ADCC reporter cell based assay; sample stressed at 25° C. for 4 weeks, relative to its untreated control)” value in assay [8] is 95%.

B5: Variant 1 (DS -> DY) (antibody, human IgG1, lambda, V domains shown)
VH: QMQLQESGPGLVKPSETLSLTCSVSGASISDSYWSWIRRSPGKGLEWIGYVHKSGDTNYNPSLKSRVHLSLDTSKNQVSLSLTGVTAADSGKYYCARTLHGRRIYGIVAFNEWFTYFYMDVWGTGTQVTVSS
VL: SDISVAPGETARISCGEKSLGSRAVQWYQHRAGQAPSLIIYNNQDRPSGIPERFSGSPDYRPGTTATLTITSVEAGDEADYYCHIWDSRVPTKWVFGGGTTLTVLG
With B5, the “% ADCC Activity (ADCC reporter cell based assay; sample stressed at 25° C. for 4 weeks, relative to its untreated control)” value in assay [8] was 100%.

B6: PGT121.56 (antibody, human IgG1, lambda)
heavy: QMQLQESGPGLVKPSETLSLTCSVSGASISDSYWSWIRRSPGKGLEWIGYVHKSGDTNYSPSLKSRVNLSLDTSKNQVSLSLVAATAADSGKYYCARTLHGRRIYGIVAFNEWFTYFYMDVWGNGTQVTVSSASTKGPSVFPLAPSSKSTSGGTAALGCLVKDYFPEPVTVSWNSGALTSGVHTFPAVLQSSGLYSLSSVVTVPSSSLGTQTYICNVNHKPSNTKVDKKVEPKSCDKTHTCPPCPAPELLAGPDVFLFPPKPKDTLMISRTPEVTCVVVDVSHEDPEVKFNWYVDGVEVHNAKTKPREEQYNSTYRVVSVLTVLHQDWLNGKEYKCKVSNKALPLPEEKTISKAKGQPREPQVYTLPPSREEMTKNQVSLTCLVKGFYPSDIAVEWESNGQPENNYKTTPPVLDSDGSFFLYSKLTVDKSRWQQGNVFSCSVLHEALHSHYTQKSLSLSPGK
light: not shown
B6: the “Neutralization potency, IC50” value was found to be 0.02 µg/mL in assay [9]; 0.164 µg/mL in assay [10]; 0.142 µg/mL in assay [11]; 0.019 µg/mL in [12]; 0.011 µg/mL in [13].

B7: PGT121.56 (antibody, human IgG1, lambda)
heavy: QMQLQESGPGLVKPSETLSLTCSVSGASISDSYWSWIRRSPGKGLEWIGYVHKSGDTNYSPSLKSRVNLSLDTSKNQVSLSLVAATAADSGKYYCARTLHGRRIYGIVAFNEWFTYFYMDVWGNGTQVTVSSASTKGPSVFPLAPSSKSTSGGTAALGCLVKDYFPEPVTVSWNSGALTSGVHTFPAVLQSSGLYSLSSVVTVPSSSLGTQTYICNVNHKPSNTKVDKKVEPKSCDKTHTCPPCPAPELLAGPDVFLFPPKPKDTLMISRTPEVTCVVVDVSHEDPEVKFNWYVDGVEVHNAKTKPREEQYNSTYRVVSVLTVLHQDWLNGKEYKCKVSNKALPLPEEKTISKAKGQPREPQVYTLPPSREEMTKNQVSLTCLVKGFYPSDIAVEWESNGQPENNYKTTPPVLDSDGSFFLYSKLTVDKSRWQQGNVFSCSVLHEALHSHYTQKSLSLSPGK
light: not shown
As for B7, the EC50 is 0.47 nM with Human FcRn [14] and 102 nM in the assay with Human FcRn [15]. Also, the “Ratio pH 7.0/6.0” value with Human FcRn [16] came out at 217. In the assay with Human FcRn [17], the “Fold vs PGT121” value worked out at 7 fold.
